{
  "source": "patent US20240024383A1",
  "about": "“ENGINEERED PROBIOTIC COMPOSITIONS AND USES THEREOF” (priority 2020, published 2024)",
  "key": {"[1]": {"test_system": "C. difficile", "experiment": "Mouse model for parenteral ampicillin-induced disruption of colonization resistance against C. difficile", "format": "in vivo, C57BL/6 mice", "settings": "single daily dose, 200 mg/kg intraperitoneal, 3 days, 5×10^3 spores 24 hours after last dose", "protocol": "FIGS. 7A-7C. Mouse model for parenteral ampicillin-induced dysbiosis and the disruption of colonization resistance against C. difficile. FIG. 7A. A 3-day intraperitoneal ampicillin administration regimen is evaluated for its effects in abolishing colonization resistance against 5×10^3 spores of C. difficile at 24 hours after the last ampicillin dose. C. difficile density in feces is evaluated 24 hours after the infection. FIG. 7B. […] FIG. 7C. Dose-dependency of single daily intraperitoneal ampicillin injections in the disruption of colonization resistance against C. difficile.\nL. lactis spTEM1 protects the diversity and composition of gut the microbiota in an ampicillin-induced dysbiosis murine model. To test the efficacy of L. lactis spTEM1 in preventing ampicillin-induced dysbiosis, a mouse model was developed that utilizes susceptibility to C. difficile infection as an endpoint indication of gut dysbiosis. […] Based on this antibiotic regimen, the inventors devised a probiotic intervention aimed at populating the mouse gut with L. lactis spTEM1 while ampicillin circulates in the body (FIG. 3A). […]\nC. difficile infection. […] The number of colony forming units (CFU) was counted using TCCFA plates supplemented with 50 μg/mL Erythromycin at 37° C. under anaerobic conditions, as previously reported.^26"}, "[2]": {"experiment": "Nitrocefin hydrolysis assay for β-lactamase activity in culture supernatants", "format": "biochemical", "settings": "0.1 mM nitrocefin, absorbance at 486 nm", "excerpt": "A L. lactis strain was generated that is able to inactivate β-lactam antibiotics in its surroundings by secreting a split enzyme that is encoded in a two-gene biosynthesis pathway. By splitting β-lactam degradation into a genetically unlinked trait the selective advantage conferred upon a single locus was removed, thereby limiting the possible spread of the engineered trait in the population through a single HGT event. To achieve this, a heterodimeric version of the TEM1 β-lactamase (spTEM1) that regains its activity when reconstituted in the extracellular environment was generated.\nβ-lactamase assay. Nitrocefin (BioVision) was dissolved in DMSO to make a 1 mM stock. It was added to samples bacterial culture supernatant in a clear-bottom 96-well plate to a final concentration of 0.1 mM. The plate was placed in a spectrophotometer SpectraMaX™ M5 (Molecular Devices) to read absorbance at 486 nm over time."}, "[3]": {"target": "T1, β lactamase fragment (BLF) 2 of TEM1 β-lactamase, without SpyCatcher", "T1 chain": "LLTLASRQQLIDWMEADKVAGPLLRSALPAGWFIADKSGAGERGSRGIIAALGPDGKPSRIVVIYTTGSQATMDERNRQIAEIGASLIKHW"}, "[4]": {"test_system": "E. coli", "experiment": "Cell density-dependent survival/growth on ampicillin, E. coli expressing spTEM1 elements", "format": "cell-based, Escherichia coli", "excerpt": "FIGS. 2A-2B. […] FIG. 2A. Cell density-dependent growth on ampicillin. β-lactamases in the periplasm of Gram-negative bacteria i.e. E. coli, confer selective advantage to single-cells. Survival to ampicillin is an emergent property of the of the L. lactis spTEM1 population and not of single cells. Diffusion from the cell surface precludes protection to the producer cell when the population density is low. FIG. 2B. Estimation of the ampicillin survival density threshold in prototypical Gram-negative and Gram-positive strains expressing elements of the spTEM1 system.\nThe spTEM1 β-lactamase system is not amenable to HGT. Stable acquisition of a new genetic trait by HGT requires both the physical mobilization of DNA into the recipient cell and that the expression of the newly obtained genetic material provides enough selective advantage to outcompete the rest of the population. While encoding the spTEM1 β-lactamase system in separate genetic loci reduces the likelihood of transfer to a single recipient cell, the scenario of simultaneous acquisition of the two β-lactamase fragments cannot be completely ruled out. The inventors investigated whether stable acquisition of the spTEM1 β-lactamase genes to a Gram-negative bacterium confers a fitness advantage in the presence of ampicillin.\nBacterial strains. […]"}},
  "note": "Entries after “also recorded” stand apart in the source; their conditions may differ.",
  "data": [
    {"molecule": "CC1(C)S[C@@H]2[C@H](NC(=O)[C@H](N)c3ccccc3)C(=O)N2[C@H]1C(=O)O", "note": "[ampicillin]", "values": [
      {"measurement": "disruption of colonization resistance against C. difficile", "setting": "[1]", "result": "sufficient to abrogate colonization resistance; also recorded: enough to sensitize the mouse gut to robust C. difficile colonization"}
    ]},
    {"molecule": "ST-BLF-1: SpyTag fused to TEM1 β-lactamase fragment BLF1 with usp45 secretion signal (SEQ ID NO: 4) (protein) MKKKIISAILMSTVILSAAAPLSGVYAAHIVMVDAYKPTKGGGGSGGGGSMHPETLVKVKDAEDQLGARVGYIELDLNSGKILESFRPEERFPMMSTFKVLLCGAVLSRIDAGQEQLGRRIHYSQNDLVEYSPVTEKHLTDGMTVRELCSAAITMSDNTAANLLLTTIGGPKELTAFLHNMGDHVTRLDRWEPELNEAIPNDERDTTTPVAMATTLRKLLTG", "values": [
      {"measurement": "β-lactamase activity (nitrocefin hydrolysis)", "setting": "[2]", "result": "do not display β-lactamase activity"}
    ]},
    {"molecule": "β lactamase fragment (BLF) 1 of TEM1 β-lactamase, without SpyTag (protein) MHPETLVKVKDAEDQLGARVGYIELDLNSGKILESFRPEERFPMMSTFKVLLCGAVLSRIDAGQEQLGRRIHYSQNDLVEYSPVTEKHLTDGMTVRELCSAAITMSDNTAANLLLTTIGGPKELTAFLHNMGDHVTRLDRWEPELNEAIPNDERDTTTPVAMATTLRKLLTG", "values": [
      {"measurement": "β-lactamase activity in culture supernatants (nitrocefin)", "setting": "[3]", "result": "slow in reconstituting and show minimal β-lactamase activity"}
    ]},
    {"molecule": "TEM1 β-lactamase: Intact TEM1 β-lactamase with periplasmic localization in E. coli (protein, UniProt P62593 24-286, looked up) Beta-lactamase TEM: HPETLVKVKDAEDQLGARVGYIELDLNSGKILESFRPEERFPMMSTFKVLLCGAVLSRVDAGQEQLGRRIHYSQNDLVEYSPVTEKHLTDGMTVRELCSAAITMSDNTAANLLLTTIGGPKELTAFLHNMGDHVTRLDRWEPELNEAIPNDERDTTMPAAMATTLRKLLTGELLTLASRQQLIDWMEADKVAGPLLRSALPAGWFIADKSGAGERGSRGIIAALGPDGKPSRIVVIYTTGSQATMDERNRQIAEIGASLIKHW", "values": [
      {"measurement": "growth in ampicillin as single colonies", "setting": "[4]", "result": "enables the growth in ampicillin as single colonies"}
    ]}
  ]
}
